B1: AcUGT1 (Aesculus chinensis) (protein)
chain: MQKAELVFIPLPGVSHLISTVEIAKLLVGRDDRLSITVLIIKFPNFDSNVIAAYTRSLDRIKFIDLPNHFSDSDNSRTLFFSIIESQKPHVKEAVTKLTQSESLPAADSPRLAGFVLDMFCTCMIDVANDFGVPSYIFFTSGAAFLGLMFHAQFLHDELGKSTTDFKDSESDAELVVPSLANPVPARVLPSAMLSKEWSMHLNELSRRFRTTKGIMVNTFAELESYAVNSLSDGSKTQIPPLYPVGPILNLNGDNHVPERKAEIMEWLDDQPPSSVVFLCFGSMGSFDGDQLKEIACALEQSGHRFLWSVRQSPPKDKDKDKIVIPNDCENLTDVLPEGFLDRTVGIGKVIGWAPQVAVLGHPAVGGFVSHCGWNSTLESIWFGVPIATWPIYAEQQLNAFEMVRELGLAVEIKMDYRKDFITESVVELVTAEEIERGIRRLMESDNNDIRKKVKEMSEKSRRALMDGGSSFSSLGRFIGDVIDNIS
notes: cloned from mixed leaf, flower and seed cDNA into pMAL-c2x (MBP-fusion vector), expressed in Escherichia coli
B2: AcUGT26 (Aesculus chinensis) (protein)
chain: MSSSRSQSHHVILFPFMSKGHTIPLLHLAQLLLRRPRVAVTVFTTPANRPFTSNFLRNTAASIIDLPFPENVPEIAPGIESTDKLPSMSLFVPFARATKLMQPDFERAVEAMPRVSFLVSDGFLWWTLESATKFGFPRFVFYGMNNYSGCVCRAVVENRLLYGRKSDDELVTVTGFPWIKVTRNDFEPTFTDPEPKGPMFDLVIDQVIATSNSYGLIVNSFYELESLFVEHKNREAKPKVWCVGPLCLADPLRVQDQLPPHQKPTWIQWLDQKLEQGRSVLYVAFGTQAEISEEQVKEISSGLEESKVNFLWVIRKKESELGDGFEKRVKERGLIVREWVDQREMLLHQSIHGFLSHCGWNSVMESICAGVPILAWPMMAEQPLNARMVVEEIKVGLRVETCNGSVRGFVKKEGLEKMVKELMEGEKGKEVRKKAKEYAEMARKAMDEDNGSSCRTLDMLMAEISNSKSQDKMEV
notes: as for B1

How the values were obtained:
[1] = substrate: O=c1c(O)c(-c2ccc(O)c(O)c2)oc2cc(O)cc(O)c12; assay: UPLC-MS/MS glucosyltransferase kinetics; assay type: biochemical, Aesculus chinensis; details: UDP-glucose 2 mM, pH 7.0 Tris-HCl, 10 mM DTT, 37 °C
[2] = substrate: O=c1c(O)c(-c2ccc(O)cc2)oc2cc(O)cc(O)c12; assay: UPLC-MS/MS glucosyltransferase kinetics; assay type: biochemical, Aesculus chinensis; details: UDP-glucose 2 mM, pH 7.0 Tris-HCl, 10 mM DTT, 37 °C

Protein | Km [1] | kcat [1] | Km [2]
B1 | 1.02 ± 0.23 µM | 5.34±0.01(10^-3) S^-1 | 22.62 µM
B2 | 2.23 ± 0.06 µM | 0.65±0.02(10^-3) S^-1 | –

Reference: publication PMC8850972, “Unraveling the Glucosylation of Astringency Compounds of Horse Chestnut via Integrative Sensory Evaluation, Flavonoid Metabolism, Differential Transcriptome, and Phylogenetic Analysis” (Frontiers in Plant Science, 2022)
